Experiment [1] concerns the target human osteocalcin (human) (UniProt P02818). As to the kind of experiment: ELISA: 0.5 ug/mL KTM-219 on plate coated with 2 ug/mL human osteocalcin, peroxidase anti-mouse IgG detection (zero-competitor point of the competition ELISA). (In general: In an ELISA, binding on a coated surface is turned into a signal by an enzyme label.)
For experiment [2], the target named is T1, OC-1 peptide (human).
T1 construct: Conjugated to BSA as the coating antigen in the screening ELISA; also called C-terminal 12 amino acid partial peptide of human osteocalcin
T1 peptide: FQEAYRRFYGPV
As to the kind of experiment: competitive inhibition ELISA on OC peptide-BSA with free OC peptide (hybridoma screening).

Experiment [3] deals with T1, OC-1 peptide. As to the kind of experiment: open sandwich ELISA: MBP-VL adsorbed on plate, VH-AP in solution, p-nitrophenyl phosphate, OD405.

We go through 2 molecules from patent publication WO2006033413A1 (dated 2006).

B1: mouse monoclonal antibody KTM-219 (antibody, IgG1, V domains shown)
VH: EVQLEESGAEFVKAGASVKLSCKTSGYTFNNYWIHWVKQSPGQGLEWIGEIDPSDGYSNYNQKFKGKATLTVDKSSSTAYMHLNSLTSEDSAVYYCTSSTSVGGSWGQGTTVTVSS
VL: DIELTQSPLSLPVSLGDQASISCTSSQSLLHSNGDTYLHWYLQKPGQSPKLLIYTLSNRFSGVPDRFSGSGSGTDFTLKISRVEAADLGIYFCSQTTHVPYTFGGGTKLEIKR
notes: Biotin-labelled when used as the detection antibody in the sandwich ELISA; also called anti-OC-1 peptide monoclonal antibody
On to B1, for which, in experiment [1], the absorbance (450 nm) without OC-1 peptide was determined as 2.28 absorbance. Further, in the experiment with OC-1 peptide [2], the binding result is “binds”.

B2: KTM-219 VH-AP fusion protein together with MBP-VL fusion protein (open sandwich pair) (other)
VH: B1 VH
VL: B1 VL
notes: Two separate purified periplasmic proteins; MBP-VL (about 56.5 kDa) is adsorbed on the plate and VH-AP (about 61.9 kDa) is added in solution; also called VH-alkaline phosphatase fusion protein; pET-VH219-AP product; not shown: E. coli alkaline phosphatase (1450 bp fragment of pPhoA); His tag; His-Myc tag
B2: the binding result in the experiment with OC-1 peptide [3] was “binds”.
